± gives the standard deviation.
Assay: protein stability index of a GFP-peptide fusion (GPS, HEK-293T) (PSI 1-6); higher = more stable
Conditions: c terminus: a fixed tail appended
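Also: 24-mer peptide tiles fused after GFP, lentivirally expressed, FACS-sorted into six equal bins by GFP/DsRed ratio, decoded by Illumina sequencing, PSI is the read-weighted mean bin number.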

| Sequence | protein stability index (treatment: DMSO) | protein stability index (treatment: MLN4924 1 uM, 8 h) |
| --- | --- | --- |
| PSSGPVTPQPTALTFAKSSWARQE [AUP1] | 4.2 ± 0.29 | 4.27 ± 0.24 |
| PTGPRRGRDELGGGRRPGTSPALL [CDKN1A] | 4.624 ± 0.031 | 4.53 ± 0.061 |
| PTPPGQYFYPRGGGSGGGAGGAGG [JUNB] | 4.81 ± 0.15 | 4.5 ± 0.16 |
| PTPQVDELDILPIHPPSGNSDLDP [BTBD10] | 5.54 ± 0.097 | 5.39 ± 0.35 |
| PVDLNKILEDMRCQYEALVENNRR [KRT36] | 3.31 ± 0.3 | 3.23 ± 0.36 |
| PVHTTILNPHIHLMGDESACIAYI [CAMK2A] | 2.42 ± 0.17 | 2.42 ± 0.082 |
| PVLSGAELEKAHLALIDYLTQKRS [VPS39] | 3.37 ± 0.26 | 3.38 ± 0.27 |
| PWLRQDPMPLAPTRSHLWEAAQVV [TRIB3] | 2.5 ± 0.18 | 2.27 ± 0.29 |
| PWNCILLTKDEAAAHLKLTSIEEG [IQUB] | 3.12 ± 0.1 | 3.44 ± 0.07 |
| PYKCVQPDCGKAFVSRYKLMRHMA [PLAGL1] | 2.23 ± 0.31 | 2.08 ± 0.21 |
| PYSKTLVLQTSEGKALQQYPSERE [TRIM9] | 4.63 ± 0.088 | 4.66 ± 0.21 |
| QASAAPAAPLPERNSLSAIFNNVM [SLC29A1] | 3.55 ± 0.094 | 3.5 ± 0.14 |
| QAVCGKCSSKRSSYPVMGFEFQVR [WDFY1] | 2.16 ± 0.23 | 2.34 ± 0.44 |
| QAWFGFAGTPGYLSPEVLRKEAYG [CAMK2B] | 2.55 ± 0.22 | 2.76 ± 0.22 |
| QCCQTEIIELRRTVNALEIELQAQ [KRT36] | 2.95 ± 0.49 | 2.76 ± 0.4 |
| QDGSESFFFRHGHRGLLTMQLKSP [SPAG8] | 2.96 ± 0.3 | 3.03 ± 0.35 |
| QDLCGVSTCDTLGMADVGTVCDPA [ADAMTS4] | 5.07 ± 0.25 | 5.25 ± 0.26 |
| QDVDPVHNLIEQVSLGLGQPWHAV [FBXO33] | 2.75 ± 0.17 | 2.55 ± 0.18 |
| QEALDPGPFDQGSPFAQELLDDGQ [ELF3] | 5.58 ± 0.24 | 5.32 ± 0.14 |
| QEEEEDNRDSSMKLSFRARAYGFR [CHGA] | 4.58 ± 0.13 | 4.62 ± 0.28 |
| QETPGPREALTRLQELCYQWLRPH [ZSCAN9] | 2.54 ± 0.12 | 2.6 ± 0.17 |
| QFLEEINKWTVQYNVSPLSWNVAV [PTPN9] | 2.79 ± 0.82 | 2.87 ± 0.49 |
| QGLRPRTVSSPIPYTPSPSSSRPI [CCDC6] | 4.64 ± 0.22 | 4.7 ± 0.16 |

| Sequence | protein stability index (treatment: DMSO) | protein stability index (treatment: MLN4924 1 uM, 8 h) |
| --- | --- | --- |
| QGQAKTPDSMFLAMLAVVSCASIG [CDK11A] | 3.36 ± 0.59 | 3.11 ± 0.63 |
| QKGSHPMCKEHEDEKINIYCLTCE [TRIM63] | 4.64 ± 0.22 | 4.67 ± 0.17 |
| QKLGSGAWDNPAYSGPPSPHGTLR [PKD2L1] | 3.79 ± 0.1 | 3.95 ± 0.31 |
| QKLQEITRCKSSEEKKPGELKRLV [TRIM39] | 4.16 ± 0.37 | 4.21 ± 0.17 |
| QKTLQVKCQHYKKKRTEQEETIAS [CEP70] | 4.33 ± 0.34 | 4.64 ± 0.2 |
| QLGYLLFGTQVENFSTFIKCIFTQ [PKD2L1] | 2.83 ± 0.41 | 3.27 ± 0.55 |
| QLKEEMARHLREYQELLNVKMALD [PRPH] | 3.32 ± 0.22 | 3.5 ± 0.36 |
| QLMEKLREKQLSHSLRAVSTDPPH [BEX1] | 3.35 ± 0.37 | 3.27 ± 0.34 |
| QLPRPPIVGGNKGRSGPLPPVPLG [WAS] | 3.55 ± 0.13 | 3.83 ± 0.64 |
| QLSIERGKVLQNKQAEICQLEEKL [CCDC89] | 4.58 ± 0.4 | 4.45 ± 0.37 |
| QMSGEPLDKLNFEAINFCRGLGSQ [ACSBG2] | 3.51 ± 0.49 | 2.89 ± 0.39 |
| QNVHFHRSGSPTVPIKPPCIPNGK [CAMK2D] | 3.85 ± 0.26 | 4.05 ± 0.2 |
| QPHHQPPNRAGAPGESLECPAELR [TRAF3IP2] | 5.42 ± 0.23 | 5.21 ± 0.23 |
| QPSKSHKKVLKKMLKFLAKGEVPK [ATE1] | 2.13 ± 0.36 | 2.26 ± 0.58 |
| QQIHVVSQFKILVSLLENNIYVHD [VPS39] | 3.08 ± 0.059 | 3.23 ± 0.28 |
| QQTHNIEKAHECTDCGKAFLKKSQ [ZNF649] | 3.93 ± 0.3 | 4.02 ± 0.17 |
| QRAWVRALNEQACRNGSSIQIAFE [C2CD2L] | 2.46 ± 0.34 | 2.69 ± 0.16 |
| QREGTGKTVSLQIFSVLNSDDAAA [SMOC2] | 3.38 ± 0.24 | 3.35 ± 0.4 |
| QRLLGEDKFQWLAGLAPPSLFARA [ANKRD9] | 2.59 ± 0.12 | 2.66 ± 0.28 |
| QSCARAVVPSYIPLVKKHCDDSFT [CPOX] | 2.73 ± 0.2 | 2.71 ± 0.27 |
| QSCLLVIFATKPHVLPAVLAEVAP [PYCR3] | 3.09 ± 0.75 | 3.32 ± 0.74 |
| QSGGRLRRPVNVPLDMFSEEIKFY [KCNA1] | 2.52 ± 0.28 | 2.75 ± 0.28 |
| QSHISDMSVILSMDNNRNLDLDSI [KRT71] | 3.87 ± 0.4 | 3.72 ± 0.35 |

| Sequence | protein stability index (treatment: DMSO) | protein stability index (treatment: MLN4924 1 uM, 8 h) |
| --- | --- | --- |
| QVHQGIKGMVLDENYNNLANAVIS [CPN1] | 2.52 ± 0.23 | 2.62 ± 0.34 |
| QVLRNNPDALSDVGEVPYWVLEPV [ELOA2] | 2.92 ± 0.52 | 3.34 ± 0.44 |
| QVLYEWEQGFSQSFTQEQVADIDG [CTNNB1] | 4.24 ± 0.3 | 4.09 ± 0.46 |
| QYPAGTQGEQLEVPERLLVVLDME [SPSB2] | 3.82 ± 0.45 | 3.69 ± 0.19 |
| RAILYPCHGMSSQLVRYSADGLLQ [GALNT9] | 2.69 ± 0.22 | 2.76 ± 0.27 |
| RAQLHVQGLLHEAGSTDDRIVVPQ [SPNS1] | 4.15 ± 0.1 | 4.23 ± 0.22 |
| RAYLFNSVVNVGCGPAEERVLLTG [YPEL3] | 2.72 ± 0.56 | 2.87 ± 0.71 |
| RCKEENTIILQQLLPLRTKVAKLL [NLN] | 2.47 ± 0.25 | 2.21 ± 0.17 |
| RCVLVFEQVRFLMKSYSFLREAVP [SOAT2] | 2.54 ± 0.42 | 2.8 ± 0.38 |
| RDLIPPHVNFSHLTTKDYMEMYNV [SLC6A17] | 3.04 ± 0.28 | 3.23 ± 0.17 |
| RDVKPENFLIGRQGNKKEHVIHII [CSNK1G1] | 2.26 ± 0.42 | 2.33 ± 0.21 |
| RDYPSSRDTRDYAPPPRDYTYRDY [RBMX] | 2.87 ± 0.38 | 3.08 ± 0.35 |
| REPALDGGFQMHYEKTPFDQLAFI [EID1] | 2.65 ± 0.33 | 2.43 ± 0.28 |
| REQEKKPKKEANQAPKSKSGSRPR [LRRC59] | 5.41 ± 0.16 | 5.3 ± 0.23 |
| REVEARYALQMEQLNGILLHLESE [KRT18] | 2.98 ± 0.63 | 3.16 ± 0.53 |
| RFHYDRNPGTDAVAQTSLEEFNVL [FATE1] | 3.74 ± 0.24 | 3.78 ± 0.11 |
| RFIHLVTGCVLGSSGKVLPKWGWE [POMT2] | 3.51 ± 1.3 | 3.15 ± 0.63 |
| RFLANEVLQENYTHLPKADIFALA [WEE1] | 2.27 ± 0.2 | 2.33 ± 0.41 |
| RFLDYEMQNSNECKRNFVAVYDGS [NETO1] | 2.96 ± 0.24 | 3.31 ± 0.85 |
| RGHMPEWYTKSFGHLCAAEVVKIR [DLC1] | 2.08 ± 0.23 | 2.42 ± 0.32 |
| RHSKGLQILGQTLKASMRELGLLI [KCNA1] | 2.96 ± 0.5 | 2.89 ± 0.15 |
| RHWHRPVLMAVSVHSERKLLPLVT [SCNN1D] | 2.23 ± 0.37 | 2.11 ± 0.26 |
| RITGLSPGRSALIVAVLCYINLLN [SPNS1] | 2.35 ± 0.47 | 2.14 ± 0.29 |

| Sequence | protein stability index (treatment: DMSO) | protein stability index (treatment: MLN4924 1 uM, 8 h) |
| --- | --- | --- |
| RKKQHICDECGKHFSQGSALILHQ [ZNF24] | 3.53 ± 0.21 | 3.62 ± 0.41 |
| RKLLNRHNIVFGDYTWTEFDEPFL [TRIP13] | 2.24 ± 0.24 | 2.64 ± 0.22 |
| RKMLEQGYSPNGRDANGWTLLHFS [ASB7] | 2.34 ± 0.14 | 2.49 ± 0.21 |
| RKRTAHERAKELYSSGEFSSGRKW [INTS4] | 4.06 ± 0.32 | 4.08 ± 0.31 |
| RLGPLSAEGTTGLAPAGQTSEESR [TNXB] | 5.3 ± 0.36 | 5.41 ± 0.2 |
| RLLGSARPELGAALGIYGAPYAAA [IRX6] | 2.27 ± 0.42 | 2.44 ± 0.47 |
| RLRVELECEEGELSFYDAERHCHL [TRIM35] | 3.66 ± 0.17 | 3.75 ± 0.075 |
| RLSRRMASQHSYPLNRFSSVPLDP [CBY2] | 3.22 ± 0.27 | 3.45 ± 0.22 |
| RLSVPRDSACDESSCIPKAFGNPK [IRX6] | 4.84 ± 0.18 | 4.89 ± 0.19 |
| RLVESTSLRKAIETVYAAYLPKNT [MLH1] | 2.2 ± 0.27 |  |
| RMEYVHSKNLIYRDVKPENFLIGR [CSNK1G1] | 2.45 ± 0.16 | 2.79 ± 0.31 |
| RMGLMKANHVFFLLYLLHILLLDG [FADS1] | 2.94 ± 0.83 | 2.68 ± 0.52 |
| RMSYQDPAQLSCLPYLEHVGHNHT [NFE2L1] | 2.98 ± 0.2 | 3.12 ± 0.28 |
| RNVRERIAKNLVEKGILTTEKQNF [GOLPH3L] | 3.73 ± 0.22 | 3.82 ± 0.2 |
| RPGHLPGLLLGSHGLLGSPVRAAA [CDC25B] | 3.31 ± 0.53 | 3.09 ± 0.42 |
| RPVSCSGRDALLDQIRQGIQLKSV [WASL] | 5.08 ± 0.56 | 4.95 ± 0.21 |
| RPYMCKECGKAFSQNSSLVQHERI [ZNF8] | 2.82 ± 0.16 | 3.24 ± 0.45 |
| RQIRTNWATRKPPAPKSTYECRCI [TIA1] | 2.56 ± 0.17 | 2.85 ± 0.45 |
| RQMAFDFARVKKGADGVMRTMAPE [SNAP91] | 3.47 ± 0.38 | 3.43 ± 0.16 |
| RQPPPPAPQHPQPGSQALPAPALA [FBXO28] | 4.45 ± 0.23 | 4.74 ± 0.16 |
| RQVALGAMEAVRVNPLHVDSTWLL [SLC25A39] | 2.53 ± 0.27 | 2.52 ± 0.069 |

— the supplement of paper PMC10567573
